# Data reported in patent publication US20160002326A1.
# Assays:
# [1] = target: rabbit IL-17 (rabbit); assay: cell-based or functional assay
# [2] = target: rabbit IL-17 (rabbit); assay: Biacore SPR, 3 experiments; unit not printed in Table 10
# [3] = target: mouse IL-17 (mouse) (UniProt Q62386); assay: assay not stated (Table 5, 'Source And Binding Information')
# Sequence of mouse IL-17 (mouse) (Q62386 26-158 limits assumed): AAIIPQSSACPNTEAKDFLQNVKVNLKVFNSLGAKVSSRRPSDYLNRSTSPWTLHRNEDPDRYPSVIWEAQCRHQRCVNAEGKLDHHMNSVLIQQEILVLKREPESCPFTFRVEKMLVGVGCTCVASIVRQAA
# Sequence of ABBV-257 anti-human TNF and IL-17 DVD-Ig binding protein (bispecific antibody) (heavy): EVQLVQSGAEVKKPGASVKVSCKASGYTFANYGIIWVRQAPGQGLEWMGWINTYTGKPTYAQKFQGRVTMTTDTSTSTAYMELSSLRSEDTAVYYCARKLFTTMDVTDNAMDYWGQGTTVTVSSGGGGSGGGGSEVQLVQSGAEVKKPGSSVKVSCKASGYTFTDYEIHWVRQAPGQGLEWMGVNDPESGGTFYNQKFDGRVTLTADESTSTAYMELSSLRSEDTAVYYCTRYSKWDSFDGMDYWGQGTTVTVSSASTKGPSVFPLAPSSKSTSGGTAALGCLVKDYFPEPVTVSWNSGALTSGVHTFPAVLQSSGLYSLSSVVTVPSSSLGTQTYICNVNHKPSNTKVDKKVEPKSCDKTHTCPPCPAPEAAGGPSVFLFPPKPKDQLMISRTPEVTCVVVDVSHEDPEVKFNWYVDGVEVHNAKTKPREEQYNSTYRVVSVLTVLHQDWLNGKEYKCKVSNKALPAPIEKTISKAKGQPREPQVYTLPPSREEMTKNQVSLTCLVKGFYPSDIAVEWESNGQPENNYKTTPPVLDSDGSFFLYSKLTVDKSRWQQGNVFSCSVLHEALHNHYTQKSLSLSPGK
# Sequence of ABBV-257 anti-human TNF and IL-17 DVD-Ig binding protein (bispecific antibody) (light): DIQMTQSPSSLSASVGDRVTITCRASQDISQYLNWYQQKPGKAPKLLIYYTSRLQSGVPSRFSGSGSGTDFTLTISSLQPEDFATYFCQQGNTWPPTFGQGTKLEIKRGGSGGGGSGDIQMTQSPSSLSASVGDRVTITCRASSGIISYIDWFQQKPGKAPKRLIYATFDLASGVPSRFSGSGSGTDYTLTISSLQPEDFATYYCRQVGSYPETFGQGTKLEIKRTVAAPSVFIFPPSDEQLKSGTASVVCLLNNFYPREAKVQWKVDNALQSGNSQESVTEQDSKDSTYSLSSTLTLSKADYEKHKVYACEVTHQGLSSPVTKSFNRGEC
"IC50, in vitro neutralization assay (In-Vitro Potency) [1] [nM]",Kd [2] [nM],IC50 [3] [nM],Substance
11.4,3.3,–,ABBV-257 anti-human TNF and IL-17 DVD-Ig binding protein (bispecific antibody)
–,–,0.7,MAB421 anti-IL-17 antibody
